Test results as given in patent US20080248026.

Tested on: T1, purified murine β-catenin protein
T1 sequence: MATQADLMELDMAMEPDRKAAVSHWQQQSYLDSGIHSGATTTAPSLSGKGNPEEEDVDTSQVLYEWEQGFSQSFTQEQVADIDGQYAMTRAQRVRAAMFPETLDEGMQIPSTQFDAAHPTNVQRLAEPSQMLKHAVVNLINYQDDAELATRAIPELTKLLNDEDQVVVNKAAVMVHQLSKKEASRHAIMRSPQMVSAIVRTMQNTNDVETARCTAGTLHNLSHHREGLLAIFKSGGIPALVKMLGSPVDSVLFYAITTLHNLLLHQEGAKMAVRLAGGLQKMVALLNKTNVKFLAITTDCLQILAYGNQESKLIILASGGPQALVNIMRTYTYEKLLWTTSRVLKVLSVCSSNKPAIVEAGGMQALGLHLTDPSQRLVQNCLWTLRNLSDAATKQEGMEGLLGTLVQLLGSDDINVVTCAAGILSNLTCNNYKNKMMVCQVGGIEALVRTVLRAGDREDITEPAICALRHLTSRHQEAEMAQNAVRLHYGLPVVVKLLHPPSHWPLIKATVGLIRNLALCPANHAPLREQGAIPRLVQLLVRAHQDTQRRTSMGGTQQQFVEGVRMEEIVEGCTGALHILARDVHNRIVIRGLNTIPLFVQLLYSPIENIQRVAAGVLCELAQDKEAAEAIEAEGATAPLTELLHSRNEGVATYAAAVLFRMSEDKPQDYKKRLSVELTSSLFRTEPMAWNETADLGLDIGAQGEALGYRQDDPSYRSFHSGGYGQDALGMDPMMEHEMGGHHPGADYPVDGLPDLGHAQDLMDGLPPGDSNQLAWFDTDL

Substance: Akt (Cell Signaling)
- in vitro phosphorylation; collision induced dissociation spectrum of the peptide spanning Ser^552 (loss of the 98 Da H3PO4 group): indicating that this peptide (shown in FIG. 5C) is phosphorylated by Akt
